Assay [1] has as its target T1, recombinant human herpes virus entry mediator (HVEM) (human, UniProt Q92956 39-202).
T1 construct: neither construct is described; also called human HVEM; recombinant human HVEM protein (R&D systems)
T1 sequence (looked up): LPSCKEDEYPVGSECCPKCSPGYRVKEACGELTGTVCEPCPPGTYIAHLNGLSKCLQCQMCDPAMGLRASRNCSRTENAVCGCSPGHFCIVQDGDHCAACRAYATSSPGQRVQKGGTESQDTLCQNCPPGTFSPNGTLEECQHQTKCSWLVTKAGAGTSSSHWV
Briefly: SPR, human HVEM immobilised on the chip (title: PRO121; 6ug/ml human HVEM pH5.5), T3.18 as analyte 0.78125-100 nM. As to the method:
(§1) Specifically, the surface of the CM5 chip was activated with a 1:1 mixture of […], and 5 to 6 μg/mL of human HVEM was immobilized for 60 seconds at a rate of 10 μL/min. The remaining active ester groups were blocked with 1 M ethanolamine. T3.01, T3.07, T3.09, T3.14, and T3.18 were each diluted to 100 nM in 1×HBS-EP+buffer solution and diluted by serial dilution. The diluted fusion proteins were reacted at a rate of 30 μL/min. The association and dissociation times were 180 seconds and 400 seconds, respectively. After the dissociation step, stabilization was performed for 60 seconds, and then the regeneration step was performed for 30 seconds with a 10 mM glycine pH 1.5 solution at a rate of 30 μL/min.
(In general: Surface plasmon resonance follows binding to a sensor surface in real time, without labels.)

The target of assay [2] is T2, human LTβR on A375 cells (human, UniProt P36941 31-435). Briefly: cell-based or functional assay.
For assay [3], the target named is T3, human FAP on HEK293-hFAP cells (human, UniProt Q12884 1-760).
T3 construct: whole, on cells; also called human FAP-expressing cell line
T3 sequence (looked up): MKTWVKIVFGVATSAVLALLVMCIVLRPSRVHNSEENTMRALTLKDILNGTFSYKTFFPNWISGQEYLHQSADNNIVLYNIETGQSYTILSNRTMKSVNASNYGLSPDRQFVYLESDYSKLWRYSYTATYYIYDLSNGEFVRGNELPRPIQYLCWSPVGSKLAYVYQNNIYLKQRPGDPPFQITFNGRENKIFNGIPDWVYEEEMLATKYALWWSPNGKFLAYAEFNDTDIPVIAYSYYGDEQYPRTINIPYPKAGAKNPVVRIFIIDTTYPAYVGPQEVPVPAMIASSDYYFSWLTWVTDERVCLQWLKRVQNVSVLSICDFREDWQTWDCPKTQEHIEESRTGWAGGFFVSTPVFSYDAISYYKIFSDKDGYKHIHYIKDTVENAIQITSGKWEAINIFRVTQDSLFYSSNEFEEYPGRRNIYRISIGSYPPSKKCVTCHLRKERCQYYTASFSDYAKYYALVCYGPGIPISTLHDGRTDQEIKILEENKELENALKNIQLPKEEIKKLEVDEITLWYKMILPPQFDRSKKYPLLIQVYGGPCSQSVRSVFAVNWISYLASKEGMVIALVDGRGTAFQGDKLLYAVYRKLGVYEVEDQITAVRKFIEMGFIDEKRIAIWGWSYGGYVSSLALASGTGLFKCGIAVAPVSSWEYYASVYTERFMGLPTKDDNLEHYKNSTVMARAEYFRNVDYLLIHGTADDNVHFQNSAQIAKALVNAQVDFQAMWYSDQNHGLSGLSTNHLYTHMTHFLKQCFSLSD
Kind of assay: flow cytometry on HEK293-hFAP cells, 1 ug protein per 1x10^5 cells, anti-human IgG detection (axis TMEkine-PE). As to the method: (§2) Specifically, the cell line was prepared by suspending in a FACS buffer solution at 1×10⁵ cells/100 μL, and treated with 1 μg each of T3.10, T3.01, T3.05, T3.06, T3.14, and T3.18. The cells were washed twice with a FACS buffer solution. The cells were stained with an anti-human IgG antibody (Biolegend). The negative control sample was stained only with an anti-human IgG antibody (Biolegend). The expression ratio of the stained cells was measured using BD LSR and analyzed using FlowJo software.

The target of the next assay is T4, human DcR3 (human, UniProt O95407 30-300).
T4 construct: also called LIGHT receptor DcR3
T4 sequence (looked up): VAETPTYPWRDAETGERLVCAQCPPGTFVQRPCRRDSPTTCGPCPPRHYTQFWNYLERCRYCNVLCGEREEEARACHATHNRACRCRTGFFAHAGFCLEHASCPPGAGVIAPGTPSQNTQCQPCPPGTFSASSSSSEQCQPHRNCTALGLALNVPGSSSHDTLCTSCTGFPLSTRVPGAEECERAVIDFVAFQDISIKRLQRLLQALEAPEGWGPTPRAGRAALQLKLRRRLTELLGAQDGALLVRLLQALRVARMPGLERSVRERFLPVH
Kind of assay: SPR, human DcR3 immobilised on CM5, fusion protein as analyte, 1:1 binding model. As to the method: as §1, with “DcR3” for “HVEM”, “50 nM or 200” for “100”

For assay [4], the target named is T2, human LTβR on A375 cells. Kind of assay: flow cytometry on A375 cells, serial dilution from 500 nM, anti-human IgG detection. As to the method:
Specifically, the A375 cell line was prepared by suspending in a FACS buffer solution at 1×10⁵ cells/100 μL, and treated with 100 μL each of T3.01, T3.07, T3.04, and T3.18 prepared by suspending at 500 nM and diluting by serial dilution. The cells were washed twice with a FACS buffer solution. The cells were stained with an anti-human IgG antibody (Biolegend). The expression ratio of the stained cells was measured using BD LSR and analyzed using FlowJo software.

The target in assay [5] is T3, human FAP on HEK293-hFAP cells. Briefly: flow cytometry on HEK293-hFAP cells, 1 µg protein, anti-human IgG detection. As to the method:
as §2

The target in assay [6] is T5, recombinant human lymphotoxin beta receptor (LTβR) (human, UniProt P36941 28-227, limits assumed).
T5 construct: neither construct is described; also called human LTβR; recombinant human LTβR protein
Briefly: SPR, human LTβR immobilised on CM5, fusion protein as analyte, 1:1 binding model. As to the method: as §1, with “5” for “5 to 6”, “LTβR” for “HVEM”, “T3.01, T3.07, T3.09, T3.14, and T3.18 were each diluted to 100 nM in 1×HBS-EP+buffer solution and diluted by serial dilution.” left out

Assay [7] deals with T1, recombinant human herpes virus entry …. Kind of assay: sandwich ELISA: plate coated with recombinant human HVEM 1 ug/mL, fusion protein from 1 nM in serial dilution, detected with biotinylated recombinant human FAP and streptavidin conjugate, OD 450 nm.
The target in assay [8] is T2, human LTβR on A375 cells. Briefly: flow cytometry on A375 cells, anti-human IgG detection (axis TMEkine-PE); concentration not printed on the sheet. A general note: Flow cytometry measures light scatter and fluorescence of single cells or particles in a stream.
In assay [9] the target is T5, recombinant human lymphotoxin beta …. Kind of assay: sandwich ELISA: plate coated with recombinant human LTbR 1 ug/mL, fusion protein from 1 nM in serial dilution, detected with biotinylated recombinant human FAP and streptavidin conjugate, OD 450 nm. As to the method:
(i) The recombinant human LTβR protein was suspended at 1 μg/mL, dispensed in a 96-well immune plate, and treated for 24 hours. [0380] (ii) The wells were washed with a wash solution, and then blocking was performed for 1 hour with 1% BSA (bovine serum albumin, Sigma) solution. [0381] (iii) The wells were washed with a wash solution, and then T3.01, T3.14, T3.16, T3.17, T3.18 and T3.10, or T3.05, T3.06, T3.04, T3.14 and T3.10 were suspended at 1 nM and diluted by serial dilution. The wells were treated with the diluted T3.01, T3.14, T3.16, T3.17, T3.18 and T3.10, or T3.05, T3.06, T3.04, T3.14 and T3.10 for 2 hours. […] (iv) The wells were washed with a wash solution, and then treated with the human recombinant FAP-biotin diluted at 0.5 μg/mL for 2 hours. [0383] (v) The wells were washed with a wash solution, and then treated with streptavidin-RP for 20 minutes. [0384] (vi) The wells were washed with a wash solution, and then treated with a substrate solution for 20 minutes. [0385] (vii) The wells were treated with a stop solution, and the absorbance was measured at 450 nm.
On the technique in general: ELISA stands for enzyme-linked immunosorbent assay.

Results on 2 molecules are retold here after patent publication US20250368754A1 (KANAPH THERAPEUTICS, published 2025).

The Kd is a measure of binding affinity in units of concentration. Usually koff stands for a measure of how fast the partners let go of each other. The kon is the rate constant with which the complex forms.

T2 sequence (P36941 31-435): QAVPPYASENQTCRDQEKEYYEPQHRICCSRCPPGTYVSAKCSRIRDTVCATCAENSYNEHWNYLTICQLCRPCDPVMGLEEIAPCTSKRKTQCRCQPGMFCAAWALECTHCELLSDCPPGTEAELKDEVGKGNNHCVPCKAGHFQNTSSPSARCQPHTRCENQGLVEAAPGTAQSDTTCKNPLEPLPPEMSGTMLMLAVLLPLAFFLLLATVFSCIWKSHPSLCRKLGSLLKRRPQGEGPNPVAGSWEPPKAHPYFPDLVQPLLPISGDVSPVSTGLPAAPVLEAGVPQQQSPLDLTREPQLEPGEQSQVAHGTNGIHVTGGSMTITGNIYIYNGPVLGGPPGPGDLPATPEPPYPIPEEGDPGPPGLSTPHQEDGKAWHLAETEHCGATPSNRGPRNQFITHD
T5 sequence (P36941 28-227 limits assumed): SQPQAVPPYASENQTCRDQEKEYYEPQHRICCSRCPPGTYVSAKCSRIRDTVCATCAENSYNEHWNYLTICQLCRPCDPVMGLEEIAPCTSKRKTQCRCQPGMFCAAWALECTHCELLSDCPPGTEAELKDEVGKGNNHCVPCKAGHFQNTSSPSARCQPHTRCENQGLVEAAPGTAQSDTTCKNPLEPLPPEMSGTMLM

B1: T3.18 (anti-hu FAP/hu scLIGHT(GGSG)-LTb2, hu IgG1 DANG) (bispecific antibody)
heavy: QVQLVQSGAEVKKPGASVKVSCKTSRYTFTEYTIHWVRQAPGQRLEWIGGINPNNGIPNYNQKFKGRVTITVDTSASTAYMELSSLRSEDTAVYYCARRRIAYGYDEGHAMDYWGQGTLVTVSSASTKGPSVFPLAPSSKSTSGGTAALGCLVKDYFPEPVTVSWNSGALTSGVHTFPAVLQSSGLYSLSSVVTVPSSSLGTQTYICNVNHKPSNTKVDKKVEPKSCDKTHTCPPCPAPELLGGPSVFLFPPKPKDTLMISRTPEVTCVVVAVSHEDPEVKFNWYVDGVEVHNAKTKPREEQYGSTYRVVSVLTVLHQDWLNGKEYKCKVSNKALPAPIEKTISKAKGQPREPQVYTLPPSRDELTKNQVSLWCLVKGFYPSDIAVEWESNGQPENNYKTTPPVLDSDGSFFLYSKLTVDKSRWQQGNVFSCSVMHEALHNHYTQKSLSLSPGK
light: not shown
chain: not shown
notes: Knob-into-hole; LIGHT-LTb2 heterotrimer with GGSG linker after LIGHT
With B1, the binding result in [1] is listed as “no binding (tested: 100 nM)”. In addition, the “IL-8 secretion of A375 cells, EC50 (FIG. 15b)” value with human LTβR on A375 cells [2] is 0.0778 nM. In addition, the “percent of cells in the positive gate” value in assay [3] stood at 99.8%. Also, in the assay with human DcR3, the Kd came to 7.93 nM, the koff was 0.0017 s⁻¹ and the kon amounted to 214000 M⁻¹ s⁻¹. Besides, the “percent of cells bound” value with human LTβR on A375 cells [4] was not below 96%. The “percent of cells bound” value in [5] is not below 99%. In addition, in assay [6], the Kd came out at 0.245 nM, the koff is 0.000315 s⁻¹ and the kon was 1.29e+06 M⁻¹ s⁻¹.

B2: T3.10 (anti-hu FAP/null, hu IgG1 DANG) (antibody)
heavy: B1 heavy
light: not shown
chain: not shown
notes: One-armed anti-FAP knob-into-hole antibody without LIGHT; used as the control for LIGHT activity
On to B2, for which the “percent of cells in the positive gate” value in assay [3] was 99.3%. In addition, the values for the binding result (in [7]; with human LTβR on A375 cells [8]; in assay [9]) were “no binding (tested: 1000 pM)”, “no binding” and “no binding (tested: 1000 pM)”, respectively. In addition, the “percent of cells bound” value in [5] is not below 99%.
